Reference: US20260153518

Experiments:
[1] = biological target: candidate peptide No. 19 (hCXCL-7 positions 76-89), 5-carboxyfluorescein labelled
[2] = biological target: PJ-8 (positive control peptide)
[3] = biological target: candidate peptide No. 2 (hCCL-14 positions 61-74), 5-carboxyfluorescein labelled
[4] = biological target: candidate peptide No. 4 (hIFN-alpha-10 positions 150-161), 5-carboxyfluorescein labelled
[5] = biological target: candidate peptide No. 5 (hIFN-alpha-6 positions 154-165), 5-carboxyfluorescein labelled
[6] = biological target: candidate peptide No. 7 (hIFN-alpha-2 positions 154-165), 5-carboxyfluorescein labelled
[7] = biological target: candidate peptide No. 6 (hIFN-alpha-6 positions 150-161), 5-carboxyfluorescein labelled
[8] = biological target: candidate peptide No. 11 (hIFN-gamma positions 126-139), 5-carboxyfluorescein labelled
[9] = biological target: candidate peptide No. 16 (mIFN-gamma positions 143-154), 5-carboxyfluorescein labelled
[10] = biological target: PP-2b (positive control peptide)
[11] = biological target: candidate peptide No. 15 (mIFN-gamma positions 128-141), 5-carboxyfluorescein labelled
[12] = biological target: candidate peptide No. 22 (hCXCL-5 positions 3-15, Cys replaced with Ser), 5-carboxyfluorescein labelled
[13] = biological target: candidate peptide No. 20 (hCXCL-3 positions 1-14, Cys replaced with Ser), 5-carboxyfluorescein labelled
[14] = biological target: candidate peptide No. 17 (mCXCL-1 positions 1-14, Cys replaced with Ser), 5-carboxyfluorescein labelled

B1: human MMP12 (matrix metalloproteinase 12), activated with APMA (protein)
chain: GPVWRKHYITYRINNYTPDMNREDVDYAIRKAFQVWSNVTPLKFSKINTGMADILVVFARGAHGDFHAFDGKGGILAHAFGPGSGIGGDAHFDEDEFWTTHSGGTNLFLTAVHEIGHSLGLGHSSDPKAVMFPTYKYVDINTFRLSADDIRGIQSLYGDPKENQRLPNPDNSEPALCDPNLSFDAVTTVGNKIFFFKDRFFWLKVSERPKTSVNLISSLWPTLPSGIEAAYEIEARNQVFLFKDDKYWLISNLRPEPNYPKSIHSFGFPNFVKKIDAAVFNPRFYRTYFFVDNQYWRYDERRQMMDPGYPKLITKNFQGIGPKIDAVFYSKNKYYYFFQGSNQFEYDFLLQRITKTLKSNSWFGC
Question: Which results are given for B1?
Answer: Cleavage rate (%) [1]: 26%; cleavage by MMP12 (UPLC) [2]: it was confirmed that the two positive controls were cleaved by MMP12 (data is not shown); Cleavage rate (%) [3]: 56%; Cleavage rate (%) [4]: 53.5%; Cleavage rate (%) [5]: 38.5%; Cleavage rate (%) [6]: 70.4%; Cleavage rate (%) [7]: 90.3%; Cleavage rate (%) [8]: 100%; Cleavage rate (%) [9]: 61.7%; cleavage by MMP12 (UPLC) [10]: it was confirmed that the two positive controls were cleaved by MMP12 (data is not shown); Cleavage rate (%) [11]: 10.5%; Cleavage rate (%) [12]: 100%; Cleavage rate (%) [13]: 100%; Cleavage rate (%) [14]: 98.6%
